Source: patent publication US8415106B2, “Cell-based screen for agents useful for reducing neuronal demyelination or promoting neuronal remyelination” (Myelin Repair Foundation, Inc., priority 2005, dated 2013)

Legend:
[1] = tested on: Stat1; experiment: Stat1 nuclear translocation assay in mixed primary oligodendrocyte cultures; type: cell-based, mice; settings: 100 U/mL IFN-γ for 30 min, one hundred PLP positive cells counted
Protocol: Mixed primary oligodendrocyte cultures were prepared as previously described (Baerwald et al., 2000). Briefly, brain tissue was harvested from 2-3-day-old newborn pups of PLP/SOCS1 and C57B1/6J matings. Because the litters contained transgenic and wild-type pups, the brain of each animal was processed individually, cultured separately, and later genotype matched. Each brain was digested separately using 0.25% trypsin and 10 μg/ml of DNAaseI (Invitrogen) in Dulbecco's modified Eagle's medium (DMEM) for 20 min at 37° C., and cells were cultured on separate poly-D-lysine-coated […] flasks (Sigma-Aldrich). The cultures were maintained with 10% fetal bovine serum DMEM at 37° C. with 5% CO2 for 12 days, and then switched to a defined medium containing […] of insulin, 50 μg/ml of transferrin, 30 nM of selenium, 10 nM of biotin, 1 nM of progesterone, 15 nM of T3, 0.1% bovine serum albumin, and 1% […] (Sigma-Aldrich). […] One hundred PLP positive cells were manually counted in both wild-type and PLP/SOCS1 cultures. […]
The responsiveness of PLP/SOCS1 oligodendrocytes to IFN-γ was studied in primary mixed glial cultures. […] In contrast, Stat1 nuclear translocation was detected only in occasional PLP positive oligodendrocytes (6±2 cells) following IFN-γ stimulation (p<0.05).

[2] = tested on: developing oligodendrocytes and myelin; experiment: IFN-γ-overexpressing mice crossed to PLP/SOCS1 mice: tremor, oligodendrocyte density, G ratio, unmyelinated axons at postnatal day 21; type: in vivo; settings: for Incidence of tremor: 172 × PLP/SOCS1 system
From the text: The transgenic mice MBP/IFN-γ and GFAP/tTA×TRE/IFN-γ (lines 184/110 and 184/67) that overexpress IFN-γ in the CNS have been described elsewhere (Corbin et al., 1996; Gao et al., 2000; Lin et al., 2004, 2005). Briefly, MBP/IFN-γ mice are transgenic animals in which IFN-γ expression is driven by the myelin basic protein (MBP) transcriptional control region (Gao et al., 2000). GFAP/tTA×TRE/IFN-γ are double-transgenic mice obtained by mating single-transgenic GFAP/tTA to single-transgenic TRE/IFN-γ (lines 110 and 67) mice. The two TRE/IFN-γ mouse lines, line 110 and line 67, used in the experiments produce different amounts of IFN-γ when crossed to GFAP/tTA mice (184/110 and 184/67) (Lin et al., 2004, 2005). GFAP/tTA×TRE/IFN-γ is a tetracycline-off-inducible system in which the glial fibrilary acidic protein (GFAP) transcriptional control region drives the expression of tTA, which in turn, binds to the TRE (tet responsive element) and initiates the expression of IFN-γ. Administration of doxycycline suppresses tTA DNA binding and IFN-γ expression, and doxycycline removal allows for temporally-controlled induction of IFN-γ expression (Gao et al., 1999).
IFN-γ-overexpressing mice were crossed to the PLP/SOCS1 mice in double-transgenic, (MBP/IFN-γ×PLP/SOCS1) and triple-transgenic (GFAP/tTA×TRE/IFN-γ×PLP/SOCS1) mating systems. MBP/IFN-γ×PLP/SOCS1 (172×PLP/SOCS1) mating was performed according to a standard mating protocol. The GFAP/tTA×TRE/IFN-γ×PLP/SOCS1 matings were performed in a 2-step mating process: GFAP/tTA mice were initially crossed to PLP/SOCS1 mice, and double-positive (184×PLP/SOCS1) offspring were then crossed to the TRE/IFN-γ lines 110 and 67, separately. This second mating step was performed according to the previously described “tet-off” protocol. Doxycycline 0.05 mg/ml (Sigma-Aldich) was added to the water of impregnated female mice until embryonic day 14, after which the animals were switched back to normal water, thereby allowing initiation of IFN-γ transcription, which peaks during the postnatal period (Lin et al., 2005).
The litters of the mating systems (F1 generation) were examined daily and sacrificed at postnatal day 21. Clinical evaluation included behavioral observation and challenged ladder walking to elicit tremor. Histological examination included quantitation of the number and density of oligodendrocytes and examination of the myelination patterns. Brain tissue was simultaneously obtained from each animal at the time of sacrifice to verify and measure the expression of IFN-γ and Flag-SOCS1 (see below). The clinical and histological findings were subsequently stratified according to genotype. All animal procedures were conducted in compliance with the National Institutes of Health Guide for Care and Use of Laboratory Animals and were approved by the Institutional Animal Care and Use Committee at The University of Chicago.
Oligodendrocyte cell density was assessed digitally using Axiovision software, at postnatal day 21, as previously described (Lin et al., 2005). The brains were sectioned sagittally through the corpus callosum dividing the brain in two symmetrical halves. Ten frozen sections from each half were prepared at 7 μm thickness, and numbered in the sequence of their preparation. The brains of three animals per study group were prepared in this fashion. Following the CC1 immunostaining the corresponding area of corpus callosum of each section was digitally selected and the corresponding total area obtained. CC1 cell counting was performed manually within the selected areas of each section, and the number of CC1 positive cells per square area (mm^2) calculated. The results were presented as mean±SD of CC1 (+) cells/mm^2 with n=3 animals per study group. […]

[3] = 184/67×PLP/SOCS1 mice (IFN-γ and SOCS1)
[4] = 184/110×PLP/SOCS1 mice (IFN-γ and SOCS1)

B1: IFN-γ: pleotropic cytokine secreted by activated T lymphocytes and natural killer cells; recombinant rat IFN-γ added to cultures or transgenically expressed in mouse CNS (protein, UniProt P01581 23-156, looked up)
Interferon gamma: QGTLIESLESLKNYFNSSSMDAMEGKSLLLDIWRNWQKDGNTKILESQIISFYLRLFEVLKDNQAISNNISVIESHLITNFFSNSKAKKDAFMSIAKFEVNNPQIQHKAVNELIRVIHQLSPESSLRKRKRSRC
- PLP positive oligodendrocytes with Stat1 nuclear translocation ([1]; PLP/SOCS1 cultures): 6±2 cells
- PLP positive oligodendrocytes with Stat1 nuclear translocation ([1]; wild-type cultures): 96±3 cells
- Incidence of tremor ([2]; mice expressing IFN-γ only): 0%
- Incidence of tremor ([2]; mice expressing both IFN-γ and SOCS1): 0%
- G ratio (axon diameter/fiber diameter ratio) ([2]; 184/67 mice (IFN-γ only)): 0.95±0.04
- percentage of unmyelinated axons ([2]; 184/67 mice (IFN-γ only)): 57%±7
- oligodendrocytes lost ([2]; 184/67 mice (IFN-γ only) versus wild-type): approximately 40%
- oligodendrocyte density ([2]; 184/67 mice (IFN-γ only), wild-type 144±5): 79±9 CC1 (+) cells/mm^2
- G ratio (axon diameter/fiber diameter ratio) [2, 3]: 0.82±0.08
- percentage of unmyelinated axons [2, 3]: 17%±4.5
- oligodendrocytes lost ([2]; 184/67×PLP/SOCS1 mice (IFN-γ and SOCS1) versus PLP/SOCS1): approximately 15%
- oligodendrocyte density ([2]; 184/67×PLP/SOCS1 mice (IFN-γ and SOCS1), PLP/SOCS1 142±5): 112±7 CC1 (+) cells/mm^2
- percentage of unmyelinated axons ([2]; 184/110 mice (IFN-γ only)): 41%±6
- oligodendrocytes lost ([2]; 184/110 mice (IFN-γ only) versus wild-type): approximately 20%
- G ratio (axon diameter/fiber diameter ratio) ([2]; 184/110 mice (IFN-γ only), hypomyelination defined as G ratio >0.8): 0.89±0.02
- oligodendrocyte density ([2]; 184/110 mice (IFN-γ only), wild-type 146±6): 115±8 CC1 (+) cells/mm^2
- G ratio (axon diameter/fiber diameter ratio) [2, 4]: 0.75±0.03
- percentage of unmyelinated axons [2, 4]: 13%±3
- oligodendrocytes lost ([2]; 184/110×PLP/SOCS1 mice (IFN-γ and SOCS1) versus PLP/SOCS1): approximately 8%
- oligodendrocyte density ([2]; 184/110×PLP/SOCS1 mice (IFN-γ and SOCS1), PLP/SOCS1 141±6): 129±6 CC1 (+) cells/mm^2
- percentage of unmyelinated axons ([2]; MBP/IFN-γ×PLP/SOCS1 (172×PLP/SOCS1) littermates, regardless of genotype): less than 9%
